Measured values published in US20140356384A1 (COLE POLYTECHNIQUE F D RALE DE LAUSANNE EPFL, published 2014).

Key:
[1] = target: T1, mouse glycophorin-A (GYPA) on the erythrocyte membrane (mouse, UniProt P14220 1-168); assay: equilibrium binding to mouse erythrocytes by flow cytometry, one-site binding fit
[2] = target: T1, mouse glycophorin-A (GYPA) on the …; assay: flow cytometry of mouse erythrocytes incubated with the OVA conjugate, OVA detected on the cell surface

B1: ERY1-OVA (ERY1 peptide chemically conjugated to ovalbumin through SMCC) (other)
peptide: WMVLPWLPGTLDGGSGCRG
chain: GSIGAASMEFCFDVFKELKVHHANENIFYCPIAIMSALAMVYLGAKDSTRTQINKVVRFDKLPGFGDSIEAQCGTSVNVHSSLRDILNQITKPNDVYSFSLASRLYAEERYPILPEYLQCVKELYRGGLEPINFQTAADQARELINSWVESQTNGIIRNVLQPSSVDSQTAMVLVNAIVFKGLWEKAFKDEDTQAMPFRVTEQESKPVQMMYQIGLFRVASMASEKMKILELPFASGTMSMLVLLPDEVSGLEQLESIINFEKLTEWTSSNVMEERKIKVYLPRMKMEEKYNLTSVLMAMGITDVFSSSANLSGISSAESLKISQAVHAAHAEINEAGREVVGSAEAGVDAASVSEEFRADHPFLFCIKHIATNAVLFFGRCVSP
modifications: lysine side chains carry SMCC linked to the cysteine of the ERY1 peptide; C-terminal amide (CONH2); cysteine side chain conjugated through SMCC to lysine side chains of OVA
notes: also called ERY1-conjugated protein
**Q.** For B1, which Kd [1] is on record?
**A.** The Kd was 6.2 nM.

B2: MIS-OVA (OVA conjugated with the mismatch peptide through SMCC) (other)
peptide: PLLTVGMDLWPWGGSGCRG
chain: GSIGAASMEFCFDVFKELKVHHANENIFYCPIAIMSALAMVYLGAKDSTRTQINKVVRFDKLPGFGDSIEAQCGTSVNVHSSLRDILNQITKPNDVYSFSLASRLYAEERYPILPEYLQCVKELYRGGLEPINFQTAADQARELINSWVESQTNGIIRNVLQPSSVDSQTAMVLVNAIVFKGLWEKAFKDEDTQAMPFRVTEQESKPVQMMYQIGLFRVASMASEKMKILELPFASGTMSMLVLLPDEVSGLEQLESIINFEKLTEWTSSNVMEERKIKVYLPRMKMEEKYNLTSVLMAMGITDVFSSSANLSGISSAESLKISQAVHAAHAEINEAGREVVGSAEAGVDAASVSEEFRADHPFLFCIKHIATNAVLFFGRCVSP
modifications: lysine side chains carry SMCC linked to the cysteine of the MIS peptide; C-terminal amide (CONH2); cysteine side chain conjugated through SMCC to lysine side chains of OVA
**Q.** Does B2 bind [2]?
**A.** Result: no binding
